The record followed here is the Immune Epitope Database (IEDB).

The target in test [1] is HLA-A*01:01. The test is described as follows: IEDB peptide-MHC binding, purified MHC/competitive/radioactivity; filed as Kd, often an IC50 or EC50 that approximates it; ≥ and ≤ were set here for values at or beyond the usual limits of such assays.
Test [2] has as its target HLA-A*03:01. The description is as above. As to conditions: source organism: Triticum aestivum.
Test [3] deals with HLA-A*11:01. The test is described as above. Particulars: source organism: Triticum aestivum.
The target of test [4] is HLA-A*23:01. The description is as above.
For test [5], the target named is HLA-A*24:02. The description is as above.
Test [6] deals with HLA-A*26:01. The test is described as above.
Test [7] has as its target HLA-A*29:02. The description is as above.
Test [8] has as its target HLA-A*30:02. The test is described as above.
Test [9] addresses HLA-A*31:01. The description is as above. As to conditions: source organism: Triticum aestivum.
Test [10] addresses HLA-A*33:01. Described as above. As to conditions: source organism: Triticum aestivum.
The target in test [11] is HLA-A*68:01. The description is as above. Particulars: source organism: Triticum aestivum.
In test [12] the target is HLA-A*02:03. Described as above.
Test [13] concerns the target HLA-A*68:02. The description is as above.
Test [14] concerns the target HLA-A*02:02. The test is described as above.
Test [15] concerns the target HLA-A*02:06. The description is as above.
Test [16] concerns the target HLA-B*08:01. Described as above.
Test [17] addresses HLA-A*02:01. The test is described as follows: IEDB peptide-MHC binding, purified MHC/competitive/fluorescence; filed as Kd, often an IC50 or EC50 that approximates it; ≥ and ≤ were set here for values at or beyond the usual limits of such assays. As to conditions: source organism: Variola virus.
Setting [18] is: source organism: Triticum aestivum.
The mark [19] stands for this setting: source organism: Mammarenavirus lassaense.
The mark [20] stands for this setting: source organism: Lassa virus Josiah.
[21] abbreviates: source organism: Vaccinia virus WR.
[22] abbreviates: source organism: Dengue virus 1 Brazil/97-11/1997.
[23] abbreviates: source organism: Dengue virus 2 Jamaica/1409/1983.
Where [24] appears, read: source organism: SARS coronavirus Tor2.
[25] abbreviates: source organism: Lassa virus GA391.
Where [26] appears, read: source organism: Mammarenavirus juninense.

In the case of VVLQQHSIAY, the Kd was at least 70.4 µM in test [1] (setting [18]); 2.34 µM in test [2]; 1.64 µM in test [3]; at least 25.9 µM in test [4] (setting [18]); at least 39.9 µM in test [5] (setting [18]); at least 69.7 µM in test [6] (setting [18]). In addition, the Kd in test [7] (setting [18]) was 1.04 µM; in test [8] (setting [18]), 5.39 µM; in test [9] it was at least 70 µM; in [10] it was at least 70 µM; in [11], at least 24.9 µM.

For LLNVKMALDI, the Kd in test [12] (source organism: Homo sapiens) turned out to be 0.0832 µM; in [13] (source organism: Homo sapiens) it was 1 µM.

On to VPVHLCNLI, for which the Kd in test [1] (setting [19]) was at least 78.1 µM; in [4] (setting [19]), 3.17 µM; in test [5] (setting [19]), 5.7 µM; in test [6] (setting [19]), at least 77.9 µM; in [7] (setting [19]) it was at least 78.9 µM; in test [8] (setting [19]), at least 47.9 µM.

For VLIALSVLAV, the Kd in test [14] (setting [20]) was 0.162 µM; in [12] (setting [20]), 0.0122 µM; in test [15] (setting [20]), 0.128 µM; in [13] (setting [20]) it was 3.75 µM.

As to SGMVFTSPV, the Kd in [16] (setting [21]) worked out at 0.0773 µM.

On to YRGAKRMAIL, for which, in test [16] (source organism: Dengue virus 4 Philippines/H241/1956), the Kd was found to be 0.13 µM.

Turning to MAMVLSIVSL, in test [16] (source organism: Dengue virus 1 Singapore/S275/1990), the Kd was 0.83 µM.

With TTANISLTAI, the Kd in test [13] (setting [22]) is 0.0008 µM.

For the sequence ELMMATIGI, in test [13] (setting [23]), the dissociation constant (Kd) turned out to be 0.00103 µM.

Regarding SRFKKVYIL, the equilibrium dissociation constant (Kd) in test [16] (setting [21]) is 0.0764 µM.

On to SPYYRNSVA, for which, in test [16] (setting [21]), the Kd was found to be 0.111 µM.

For the sequence MAIGIVSILL, in [13] (setting [22]), the Kd amounted to 0.015 µM.

For NYMPYVFTLL, the Kd is at least 40.5 µM in test [1] (setting [24]); 0.00111 µM in test [4] (setting [24]); 0.00103 µM in test [5] (setting [24]); at least 69.7 µM in test [6] (setting [24]); 0.128 µM in test [7] (setting [24]); 2.55 µM in test [8] (setting [24]).

In test [17], LIDNPDNNL registered a Kd of 0.0776 µM.

Regarding DLRRRFDTF, the Kd in [16] (setting [21]) is 0.00158 µM.

Regarding DYRHYSASF, the Kd was at least 41.8 µM in test [1] (setting [24]); 0.0887 µM in [4] (setting [24]); 0.215 µM in test [5] (setting [24]); 7.41 µM in test [6] (setting [24]); 0.0257 µM in [7] (setting [24]); 4.34 µM in [8] (setting [24]).

Take MCPFLFLAV: the Kd in [1] (setting [19]) is 0.492 µM; in [4] (setting [19]), at least 51.1 µM; in test [5] (setting [19]) it was at least 77.5 µM; in test [6] (setting [19]), at least 77.9 µM; in test [7] (setting [19]), 1.69 µM; in test [8] (setting [19]), at least 31.2 µM.

As for IMGQLTWNDL, the Kd in test [16] (setting [22]) turned out to be 6.49 µM.

For NISGYNFSL, the Kd in [14] (setting [25]) turned out to be 0.0724 µM; in test [12] (setting [25]), 2.08 µM; in test [15] (setting [25]), 0.148 µM; in [13] (setting [25]) it was 0.176 µM.

With LDHVNTLHF, the Kd in test [1] (setting [26]) was 19.5 µM; in test [4] (setting [26]), 5.07 µM; in test [5] (setting [26]) it was 10.5 µM; in test [6] (setting [26]), at least 77.9 µM; in test [7] (setting [26]), at least 63.8 µM; in test [8] (setting [26]) it was at least 46.5 µM.

For SVNMISRMLI, the Kd in test [13] (setting [23]) was determined as 0.236 µM.

For the sequence SYSLFDMSKF, the Kd in test [1] (setting [24]) was at least 25.1 µM; in test [4] (setting [24]) it was 0.0497 µM; in test [6] (setting [24]), 6.12 µM; in test [7] (setting [24]), 0.677 µM; in test [8] (setting [24]), 0.77 µM.

Consider KWADNNCYL, for which the Kd in [1] (setting [24]) is at least 78.1 µM; in test [4] (setting [24]), 3.41 µM; in [5] (setting [24]), 4.92 µM; in test [6] (setting [24]), at least 77.9 µM; in [7] (setting [24]), at least 83.3 µM; in test [8] (setting [24]), at least 78.9 µM.

Regarding NMHLKRSVF, the Kd in test [16] (setting [21]) came to 0.149 µM.

For the sequence NIDATSTGNY, the Kd was 0.11 µM in [1] (setting [24]); at least 70 µM in test [4] (setting [24]); at least 70.3 µM in [5] (setting [24]); 0.897 µM in test [6] (setting [24]); 5.52 µM in test [7] (setting [24]); 1.42 µM in [8] (setting [24]).

Turning to QLNMEKREV, the Kd in test [17] turned out to be 0.142 µM.

Turning to RMRFKKGAV, in test [16] (setting [21]), the dissociation constant (Kd) amounted to 0.00538 µM.
